pEC50: −log10 of the molar value. Where “and” joins values, the source holds several entries; their conditions need not be identical. Equal entries are not always repeated. Where two headings read alike, the source gives them in different places. Numbered stars: 1 amine (or outer) side, 2 acyl side, 3 side chain; on linkers, the order of the positions; unused ones are H or OH. Bridge positions count the residues as written; N and C are the ends. Square brackets hold non-standard residues; d marks the D form. Peptide text beside a SMILES is read from it. X2 = O=C(O)CCCCCCCCCCCCCCCCCCC(=O)N[C@@H](CCCCNC(=O)CCOCCOCCNC(=O)CCOCCOCCNC(=O)CCC(=O)N(CCNC(=O)C[*:1])CCNC(=O)C[*:2])C(=O)O; Aib = CC(C)(N)C(=O)O
Key:
human GIPR = molecular target: T1, human GIPR (Homo sapiens, UniProt P48546); assay: In vitro receptor activation reporter assay (CRE-Luc, HEK293-GIPR-CRE cells; receptor-mediated cAMP synthesis); assay type: cell-based; details: unnumbered table
T1 construct: expressed in transfected cells; host or cells: HEK293 (CRE-HEK293, HEK293-GIPR-CRE)
T1 sequence (P48546 22-466): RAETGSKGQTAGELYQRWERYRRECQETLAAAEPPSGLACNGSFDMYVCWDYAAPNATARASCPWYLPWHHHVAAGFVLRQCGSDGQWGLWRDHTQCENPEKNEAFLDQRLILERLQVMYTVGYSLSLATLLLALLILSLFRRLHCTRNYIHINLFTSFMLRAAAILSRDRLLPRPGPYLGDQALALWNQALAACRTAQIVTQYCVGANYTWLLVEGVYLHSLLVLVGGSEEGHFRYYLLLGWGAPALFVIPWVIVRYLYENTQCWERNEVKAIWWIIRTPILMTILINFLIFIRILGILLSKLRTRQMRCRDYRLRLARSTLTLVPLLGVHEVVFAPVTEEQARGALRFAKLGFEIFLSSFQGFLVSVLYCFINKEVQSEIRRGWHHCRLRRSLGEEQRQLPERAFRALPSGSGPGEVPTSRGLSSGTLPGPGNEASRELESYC
Description: HEK293 cells were infected with lentivirus encoding firefly luciferase gene under the control of cAMP responsive element (CRE) promoter (Qiagen, The Netherlands) and then were selected using 1 μg mL^−1 puromycin (Life Technologies, Carlsbad) for 1 week. The surviving cells (referred to as CRE-HEK293) were expanded and then transfected with a G418 selective mammalian expression plasmid encoding human GLP-1R or GIPR. In brief, GLP-1R or GIPR plasmid was transfected into CRE-HEK293 cells using Lipofectamine 2000 and selected with 400 μg mL^−1 Geneticin (Life Technologies, Carlsbad, CA). Single colony stable cell line overexpressing CRE-luciferase and GLP-1R or GIPR (HEK293-GLP-1R-CRE or HEK293-GIPR-CRE) was then established for in vitro activity assay.
The EC50 of each peptide was determined using GraphPad Prism 6 software (GraphPad, San Diego, CA).

[1] = Pharmacokinetics in CD-1 mouse, I.V. or S.C. 1 mg/kg, plasma concentration by LC-MS; details: individual animals; for AUC(0-inf): AUCINF_pred; for MRT inf / MRT last: mouse, in vivo; for MRT inf: MRTINF_pred; for MRT last: MRTlast;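 for all read-outs here: peptide levels in plasma quantified by LC-MS across multiple sampling times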
Description: The peptide plasma concentration at various time points was determined using LC-MS.

[2] = average of runs, read-out: EC50 GIPR average
[3] = Table 15, I.V. 1 mg/kg, 1 mg/kg
[4] = iv, 1 mg/kg, Table 15, I.V. 1 mg/kg

CC[C@H](C)[C@H](NC(=O)[C@H](CC(C)C)NC(=O)[C@H](Cc1c[nH]c2ccccc12)NC(=O)[C@H](CC(N)=O)NC(=O)[C@@H](NC(=O)[C@H](Cc1ccccc1)NC(=O)[C@@H]1CSCC(=O)NCCN(C(=O)CCC(=O)NCCOCCOCCC(=O)NCCOCCOCCC(=O)NCCCC[C@H](NC(=O)CCCCCCCCCCCCCCCCCCC(=O)O)C(=O)O)CCNC(=O)CSC[C@H](NC(=O)[C@H](Cc2ccc(O)cc2)NC(=O)[C@@H](NC(=O)[C@H](CO)NC(=O)[C@H](Cc2ccc(O)cc2)NC(=O)[C@H](CC(=O)O)NC(=O)[C@H](CO)NC(=O)[C@@H](NC(=O)[C@H](Cc2ccc(O)cc2)NC(=O)[C@@H](NC(=O)CNC(=O)[C@H](CCC(=O)O)NC(=O)C(C)(C)NC(=O)[C@@H](N)Cc2ccc(O)cc2)[C@@H](C)O)[C@@H](C)O)[C@@H](C)CC)C(=O)N[C@@H](CC(=O)O)C(=O)N[C@@H](CCCCN)C(=O)N[C@@H](CCC(N)=O)C(=O)N[C@@H](C)C(=O)N[C@@H](C)C(=O)NC(C)(C)C(=O)N1)C(C)C)C(=O)N[C@@H](C)C(=O)NCC(=O)NCC(=O)N1CCC[C@H]1C(=O)N[C@@H](CO)C(=O)N[C@@H](CO)C(=O)NCC(=O)N[C@@H](C)C(=O)N1CCC[C@H]1C(=O)N1CCC[C@H]1C(=O)N1CCC[C@H]1C(=O)N[C@@H](CO)C(N)=O [6Y, 27I, C(14-21)-C20L5A, YAibEGT-YTSDY-SIYXD-KQAAAib-XFVNW-LIAGG-PSSGA-PPPS-NH2 (where each X is C) (SEQ ID NO: 58)] (H-Y[Aib]EGTYTSDYSIYCDKQAA[Aib]CFVNWLIAGGPSSGAPPPS-NH2; linker 14-21 via X2)
pEC50 (human GIPR; [2]): 9.25
pEC50 (human GIPR; run 03/26, read-out: EC50 GIPR 03/26): 9.22

CC[C@H](C)[C@H](NC(=O)[C@H](CC(C)C)NC(=O)[C@H](Cc1c[nH]c2ccccc12)NC(=O)[C@@H]1CSCC(=O)NCCN(C(=O)CCC(=O)NCCOCCOCCC(=O)NCCOCCOCCC(=O)NCCCC[C@H](NC(=O)CCCCCCCCCCCCCCCCCCC(=O)O)C(=O)O)CCNC(=O)CSC[C@H](NC(=O)[C@H](CCCCN)NC(=O)[C@H](CC(=O)O)NC(=O)[C@H](CC(C)C)NC(=O)[C@H](Cc2ccc(O)cc2)NC(=O)[C@@H](NC(=O)[C@H](CO)NC(=O)[C@H](Cc2ccc(O)cc2)NC(=O)[C@H](CC(=O)O)NC(=O)[C@H](CO)NC(=O)[C@@H](NC(=O)[C@H](Cc2ccc(O)cc2)NC(=O)[C@@H](NC(=O)CNC(=O)[C@H](CCC(=O)O)NC(=O)C(C)(C)NC(=O)[C@@H](N)Cc2ccc(O)cc2)[C@@H](C)O)[C@@H](C)O)[C@@H](C)CC)C(=O)N[C@@H](C)C(=O)N[C@@H](C)C(=O)NC(C)(C)C(=O)N[C@@H](CCC(=O)O)C(=O)N[C@@H](Cc2ccccc2)C(=O)N[C@@H](C(C)C)C(=O)N1)C(=O)N[C@@H](C)C(=O)NCC(=O)NCC(=O)N1CCC[C@H]1C(=O)N[C@@H](CO)C(=O)N[C@@H](CO)C(=O)NCC(=O)N[C@@H](C)C(=O)N1CCC[C@H]1C(=O)N1CCC[C@H]1C(=O)N1CCC[C@H]1C(=O)N[C@@H](CO)C(N)=O [6Y, 27I, C(17-24)-C20L5A, YAibEGT-YTSDY-SIYLD-KXAAAib-EFVXW-LIAGG-PSSGA-PPPS-NH2 (where each X is C) (SEQ ID NO: 59)] (H-Y[Aib]EGTYTSDYSIYLDKCAA[Aib]EFVCWLIAGGPSSGAPPPS-NH2; linker 17-24 via X2)
pEC50 (human GIPR; [2]): 9.59

CC[C@H](C)[C@H](NC(=O)[C@H](CC(C)C)NC(=O)[C@H](Cc1c[nH]c2ccccc12)NC(=O)[C@H](CC(N)=O)NC(=O)[C@@H](NC(=O)[C@H](Cc1ccccc1)NC(=O)[C@@H]1CSCC(=O)NCCN(C(=O)CCC(=O)NCCOCCOCCC(=O)NCCOCCOCCC(=O)NCCCC[C@H](NC(=O)CCCCCCCCCCCCCCCCC(=O)O)C(=O)O)CCNC(=O)CSC[C@H](NC(=O)[C@H](Cc2ccc(O)cc2)NC(=O)[C@@H](NC(=O)[C@H](CO)NC(=O)[C@H](Cc2ccc(O)cc2)NC(=O)[C@H](CC(=O)O)NC(=O)[C@H](CO)NC(=O)[C@@H](NC(=O)[C@H](Cc2ccccc2)NC(=O)[C@@H](NC(=O)CNC(=O)[C@H](CCC(=O)O)NC(=O)C(C)(C)NC(=O)[C@@H](N)Cc2ccc(O)cc2)[C@@H](C)O)[C@@H](C)O)[C@@H](C)CC)C(=O)N[C@@H](CC(=O)O)C(=O)N[C@@H](CCCCN)C(=O)N[C@@H](CCC(N)=O)C(=O)N[C@@H](C)C(=O)N[C@@H](C)C(=O)NC(C)(C)C(=O)N1)C(C)C)C(=O)N[C@@H](C)C(=O)NCC(=O)NCC(=O)N1CCC[C@H]1C(=O)N[C@@H](CO)C(=O)N[C@@H](CO)C(=O)NCC(=O)N[C@@H](C)C(=O)N1CCC[C@H]1C(=O)N1CCC[C@H]1C(=O)N1CCC[C@H]1C(=O)N[C@@H](CO)C(N)=O [mCMZ370, YAibEGT-FTSDY-SIYXD-KQAAAib-XFVNW-LIAGG-PSSGA-PPPS-NH2 (where each X is C) (SEQ ID NO: 52)]
AUC ([1]; CD-1, mouse, plasma, iv, 1 mg/kg, AUC0_24, Table 15, I.V. 1 mg/kg): 121000 ng·h/mL
AUC(0-t) ([1]; CD-1, mouse, plasma, iv, 1 mg/kg, AUC last, Table 15, I.V. 1 mg/kg): 148000 ng·h/mL
AUC(0-inf) ([1]; CD-1, mouse, plasma, iv, 1 mg/kg, Table 15, I.V. 1 mg/kg): 149000 ng·h/mL
C0 ([1]; CD-1, mouse, plasma, iv, 1 mg/kg, C0, Table 15, I.V. 1 mg/kg): 15200 ng/mL
Cmax ([1]; CD-1, mouse, plasma, iv, 1 mg/kg, Cmax, Table 15, I.V. 1 mg/kg): 14600 ng/mL
Tmax ([1]; CD-1, mouse, plasma, iv, 1 mg/kg, Tmax, Table 15, I.V. 1 mg/kg): 0.08 h
Vd ([1]; CD-1, mouse, plasma, iv, 1 mg/kg, Vss_pred, Table 15, I.V. 1 mg/kg): 0.098 L/kg
Vd ([1]; CD-1, mouse, plasma, iv, 1 mg/kg, Vz_pred, Table 15, I.V. 1 mg/kg): 0.085 L/kg
half-life ([1]; CD-1, mouse, plasma, iv, 1 mg/kg, t1/2, Table 15, I.V. 1 mg/kg): 8.82 h
AUC ([1]; CD-1, mouse, plasma, sc, 1 mg/kg, AUC0_24, CD-1 mouse, S.C.): 41900 ng·h/mL
AUC(0-inf) ([1]; CD-1, mouse, plasma, sc, 1 mg/kg, S.C.): 53500 ng·h/mL
AUC ([1]; CD-1, mouse, plasma, sc, 1 mg/kg, AUCall, S.C.): 53300 ng·h/mL
CL/F ([1]; CD-1, mouse, plasma, sc, 1 mg/kg, Cl_Fpred, S.C.): 0.24 mL/min/kg
Cmax ([1]; CD-1, mouse, plasma, sc, 1 mg/kg, Cmax, S.C.): 2460 ng/mL
half-life ([1]; CD-1, mouse, plasma, sc, 1 mg/kg, t1/2, CD-1 mouse, S.C.): 7.5 h
AUC0_24 ([1]; CD-1 mouse, S.C., 1 mg/kg): 44691 ng·h/mL and 63474 ng·h/mL
AUCINF_pred ([1]; CD-1 mouse, S.C., 1 mg/kg): 68240 ng·h/mL and 80676 ng·h/mL
AUC_% Extrap_pred ([1]; CD-1 mouse, S.C., 1 mg/kg): 0.26% and 0.31% and 0.19%
AUCall ([1]; CD-1 mouse, S.C., 1 mg/kg): 68029 ng·h/mL and 80522 ng·h/mL
AUMC_% Extrap_pred ([1]; CD-1 mouse, S.C., 1 mg/kg): 1.32% and 1.23% and 0.99%
Cl_Fpred ([1]; CD-1 mouse, S.C., 1 mg/kg): 0.06 mL/min/kg
Cmax ([1]; CD-1 mouse, S.C., 1 mg/kg): 2221 ng/mL and 3993 ng/mL
MRTINF_pred ([1]; CD-1 mouse, S.C., 1 mg/kg): 20.64 h and 15.82 h
MRTlast ([1]; CD-1 mouse, S.C., 1 mg/kg): 20.45 h and 15.69 h
Tlast ([1]; CD-1 mouse, S.C., 1 mg/kg): 72 h
Tmax ([1]; CD-1 mouse, S.C., 1 mg/kg): 7 h and 24 h and 3 h
V_F_pred ([1]; CD-1 mouse, S.C., 1 mg/kg): 0.2 L/kg and 0.15 L/kg and 0.13 L/kg
t1/2 ([1]; CD-1 mouse, S.C., 1 mg/kg): 7.06 h and 7.05 h
Tlast ([1]; Table 15, I.V. 1 mg/kg): 72 h
AUC0_24 [1, 3]: 107856 ng·h/mL and 85158 ng·h/mL
AUC last [1, 3]: 127615 ng·h/mL and 102411 ng·h/mL
AUCINF_pred [1, 3]: 128099 ng·h/mL and 103033 ng·h/mL
AUC_% Extrap_pred [1, 3]: 0.39% and 0.38% and 0.6%
AUMC_% Extrap_pred [1, 3]: 2.24% and 2.36% and 3.79%
C0 [1, 3]: 8380 ng/mL and 10006 ng/mL
Cmax [1, 3]: 8230 ng/mL and 9829 ng/mL
MRTINF_pred [1, 3]: 13.56 h and 13.74 h
MRTlast [1, 3]: 13.29 h and 13.3 h
Vss_pred [1, 3]: 0.106 L/kg and 0.133 L/kg
Vz_pred [1, 3]: 0.099 L/kg and 0.138 L/kg
t1/2 [1, 3]: 9.87 h
MRT inf [1, 4]: 14.6 h
MRT last [1, 4]: 14.3 h
MRT inf ([1]; sc, 1 mg/kg, CD-1 mouse, S.C.): 16.2 h
MRT last ([1]; sc, 1 mg/kg, CD-1 mouse, S.C.): 16.1 h
